Article PMC6458054 (Nature, 2017)

Key:
[1] = biological target: full-length (FL) His-ASCC3 (human, UniProt Q8N3C0 1-2202); assay: pull-down
[2] = biological target: N-terminally deleted His-ASCC3 (human, UniProt Q8N3C0 401-2202); assay: pull-down
N-terminally deleted His-ASCC3, sequence (Q8N3C0 401-2202, stated change not applied): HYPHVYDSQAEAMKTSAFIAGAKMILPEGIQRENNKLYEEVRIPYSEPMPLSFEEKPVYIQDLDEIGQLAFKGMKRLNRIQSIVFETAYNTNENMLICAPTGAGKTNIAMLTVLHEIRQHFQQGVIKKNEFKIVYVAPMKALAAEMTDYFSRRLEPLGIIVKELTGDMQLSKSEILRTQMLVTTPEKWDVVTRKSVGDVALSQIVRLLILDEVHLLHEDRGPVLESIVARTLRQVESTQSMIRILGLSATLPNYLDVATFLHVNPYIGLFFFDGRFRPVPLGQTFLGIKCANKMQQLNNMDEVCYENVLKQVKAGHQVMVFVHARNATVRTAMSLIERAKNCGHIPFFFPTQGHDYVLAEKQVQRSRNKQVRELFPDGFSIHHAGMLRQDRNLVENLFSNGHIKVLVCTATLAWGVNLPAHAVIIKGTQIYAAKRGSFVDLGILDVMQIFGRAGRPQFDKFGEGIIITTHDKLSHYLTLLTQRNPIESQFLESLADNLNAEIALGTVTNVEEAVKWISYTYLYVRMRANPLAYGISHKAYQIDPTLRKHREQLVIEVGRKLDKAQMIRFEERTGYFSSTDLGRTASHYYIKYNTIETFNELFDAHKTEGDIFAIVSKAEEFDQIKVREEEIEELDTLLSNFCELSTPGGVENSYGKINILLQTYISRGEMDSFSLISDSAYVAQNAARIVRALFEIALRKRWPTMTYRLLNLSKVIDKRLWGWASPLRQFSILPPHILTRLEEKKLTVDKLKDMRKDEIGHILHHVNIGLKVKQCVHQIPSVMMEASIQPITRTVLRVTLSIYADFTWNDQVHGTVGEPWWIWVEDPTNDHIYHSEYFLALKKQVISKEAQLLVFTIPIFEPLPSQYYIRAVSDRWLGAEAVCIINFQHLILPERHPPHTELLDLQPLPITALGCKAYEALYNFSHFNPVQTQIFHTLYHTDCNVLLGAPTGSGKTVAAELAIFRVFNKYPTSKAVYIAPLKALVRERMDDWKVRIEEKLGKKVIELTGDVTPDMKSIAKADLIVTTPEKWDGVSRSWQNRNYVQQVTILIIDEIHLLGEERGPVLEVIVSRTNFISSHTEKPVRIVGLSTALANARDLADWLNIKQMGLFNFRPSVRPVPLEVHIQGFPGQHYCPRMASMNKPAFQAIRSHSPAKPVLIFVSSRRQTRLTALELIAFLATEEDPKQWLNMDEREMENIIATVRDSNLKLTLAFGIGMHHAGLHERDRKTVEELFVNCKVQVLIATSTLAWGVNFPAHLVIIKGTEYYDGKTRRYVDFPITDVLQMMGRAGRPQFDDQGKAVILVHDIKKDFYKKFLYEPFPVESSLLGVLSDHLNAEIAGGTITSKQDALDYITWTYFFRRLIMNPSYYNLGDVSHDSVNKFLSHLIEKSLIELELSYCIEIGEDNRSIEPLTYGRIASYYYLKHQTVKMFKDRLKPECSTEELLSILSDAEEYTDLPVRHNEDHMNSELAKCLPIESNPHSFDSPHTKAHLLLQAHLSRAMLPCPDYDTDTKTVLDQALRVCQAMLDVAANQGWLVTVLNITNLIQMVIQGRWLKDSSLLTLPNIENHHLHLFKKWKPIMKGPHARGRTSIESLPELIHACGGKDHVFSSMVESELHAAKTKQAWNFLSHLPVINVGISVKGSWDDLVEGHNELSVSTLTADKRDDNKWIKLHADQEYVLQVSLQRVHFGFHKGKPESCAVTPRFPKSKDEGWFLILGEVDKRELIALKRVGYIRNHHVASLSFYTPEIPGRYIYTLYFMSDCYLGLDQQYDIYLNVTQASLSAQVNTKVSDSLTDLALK

full-length (FL) His-ASCC3, sequence (Q8N3C0 whole entry): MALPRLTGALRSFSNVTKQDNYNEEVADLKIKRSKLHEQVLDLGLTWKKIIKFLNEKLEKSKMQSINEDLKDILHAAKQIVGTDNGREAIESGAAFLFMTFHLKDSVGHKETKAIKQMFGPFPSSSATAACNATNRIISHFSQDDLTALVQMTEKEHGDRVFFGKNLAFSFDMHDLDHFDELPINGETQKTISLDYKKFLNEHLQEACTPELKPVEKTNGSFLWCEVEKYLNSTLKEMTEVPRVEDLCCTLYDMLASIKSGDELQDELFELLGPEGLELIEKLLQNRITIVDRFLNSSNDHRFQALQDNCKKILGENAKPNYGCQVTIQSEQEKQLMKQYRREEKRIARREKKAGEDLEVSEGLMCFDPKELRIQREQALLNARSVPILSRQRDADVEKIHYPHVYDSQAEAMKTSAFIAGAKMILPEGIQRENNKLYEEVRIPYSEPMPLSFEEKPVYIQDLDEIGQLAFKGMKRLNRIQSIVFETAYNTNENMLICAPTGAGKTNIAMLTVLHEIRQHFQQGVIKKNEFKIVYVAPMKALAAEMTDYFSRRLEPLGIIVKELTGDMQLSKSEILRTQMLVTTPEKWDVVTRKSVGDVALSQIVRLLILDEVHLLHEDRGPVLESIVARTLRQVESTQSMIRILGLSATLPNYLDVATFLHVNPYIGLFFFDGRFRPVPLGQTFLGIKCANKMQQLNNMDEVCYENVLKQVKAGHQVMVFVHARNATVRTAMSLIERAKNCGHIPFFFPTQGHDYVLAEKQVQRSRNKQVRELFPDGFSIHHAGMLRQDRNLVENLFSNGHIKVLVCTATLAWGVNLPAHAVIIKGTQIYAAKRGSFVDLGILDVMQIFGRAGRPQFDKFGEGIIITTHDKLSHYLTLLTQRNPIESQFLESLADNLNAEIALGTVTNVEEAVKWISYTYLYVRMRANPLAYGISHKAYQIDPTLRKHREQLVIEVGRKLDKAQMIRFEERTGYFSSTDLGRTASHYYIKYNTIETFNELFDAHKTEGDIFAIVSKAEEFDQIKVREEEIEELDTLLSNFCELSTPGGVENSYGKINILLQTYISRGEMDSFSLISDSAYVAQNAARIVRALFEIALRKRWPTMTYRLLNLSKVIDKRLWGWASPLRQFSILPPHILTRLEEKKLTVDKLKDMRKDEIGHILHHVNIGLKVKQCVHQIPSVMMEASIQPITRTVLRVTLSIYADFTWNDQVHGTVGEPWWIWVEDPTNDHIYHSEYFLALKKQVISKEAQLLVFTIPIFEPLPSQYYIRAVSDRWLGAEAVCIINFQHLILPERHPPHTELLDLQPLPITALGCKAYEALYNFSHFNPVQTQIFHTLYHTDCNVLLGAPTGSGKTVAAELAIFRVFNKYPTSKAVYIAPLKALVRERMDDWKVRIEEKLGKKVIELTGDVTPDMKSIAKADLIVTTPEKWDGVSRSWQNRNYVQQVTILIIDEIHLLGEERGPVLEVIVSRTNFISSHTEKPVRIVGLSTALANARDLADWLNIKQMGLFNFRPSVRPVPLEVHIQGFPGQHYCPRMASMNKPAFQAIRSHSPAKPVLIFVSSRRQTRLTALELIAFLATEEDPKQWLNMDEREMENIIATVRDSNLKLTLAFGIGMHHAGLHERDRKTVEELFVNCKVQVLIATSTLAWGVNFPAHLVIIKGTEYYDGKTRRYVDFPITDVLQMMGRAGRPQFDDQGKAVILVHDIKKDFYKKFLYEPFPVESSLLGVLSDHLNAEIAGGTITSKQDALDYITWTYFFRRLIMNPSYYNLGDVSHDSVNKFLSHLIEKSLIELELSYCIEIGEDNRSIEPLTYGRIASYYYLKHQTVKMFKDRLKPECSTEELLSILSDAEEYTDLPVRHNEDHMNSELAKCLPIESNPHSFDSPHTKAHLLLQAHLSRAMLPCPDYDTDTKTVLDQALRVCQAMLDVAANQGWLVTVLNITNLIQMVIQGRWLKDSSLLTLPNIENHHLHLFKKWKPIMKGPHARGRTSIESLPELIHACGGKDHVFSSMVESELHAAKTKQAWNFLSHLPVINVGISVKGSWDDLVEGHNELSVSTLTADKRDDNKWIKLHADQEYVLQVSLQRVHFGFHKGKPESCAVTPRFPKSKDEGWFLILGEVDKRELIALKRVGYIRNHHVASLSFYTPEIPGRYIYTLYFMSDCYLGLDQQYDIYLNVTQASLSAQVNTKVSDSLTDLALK

Binder	binding result [1]	binding result [2]
Flag-ASCC2 (natural protein) MPALPLDQLQITHKDPKTGKLRTSPALHPEQKADRYFVLYKPPPKDNIPALVEEYLERATFVANDLDWLLALPHDKFWCQVIFDETLQKCLDSYLRYVPRKFDEGVASAPEVVDMQKRLHRSVFLTFLRMSTHKESKDHFISPSAFGEILYNNFLFDIPKILDLCVLFGKGNSPLLQKMIGNIFTQQPSYYSDLDETLPTILQVFSNILQHCGLQGDGANTTPQKLEERGRLTPSDMPLLELKDIVLYLCDTCTTLWAFLDIFPLACQTFQKHDFCYRLASFYEAAIPEMESAIKKRRLEDSKLLGDLWQRLSHSRKKLMEIFHIILNQICLLPILESSCDNIQGFIEEFLQIFSSLLQEKRFLRDYDALFPVAEDISLLQQASSVLDETRTAYILQAVESAWEGVDRRKATDAKDPSVIEEPNGEPNGVTVTAEAVSQASSHPENSEEEECMGAAAAVGPAMCGVELDSLISQVKDLLPDLGEGFILACLEYYHYDPEQVINNILEERLAPTLSQLDRNLDREMKPDPTPLLTSRHNVFQNDEFDVFSRDSVDLSRVHKGKSTRKEENTRSLLNDKRAVAAQRQRYEQYSVVVEEVPLQPGESLPYHSVYYEDEYDDTYDGNQVGANDADSDDELISRRPFTIPQVLRTKVPREGQEEDDDDEEDDADEEAPKPDHFVQDPAVLREKAEARRMAFLAKKGYRHDSSTAVAGSPRGHGQSRETTQERRKKEANKATRANHNRRTMADRKRSKGMIPS	binds	–
Flag-ALKBH3 (enzyme) MEEKRRRARVQGAWAAPVKSQAIAQPATTAKSHLHQKPGQTWKNKEHHLSDREFVFKEPQQVVRRAPEPRVIDREGVYEISLSPTGVSRVCLYPGFVDVKEADWILEQLCQDVPWKQRTGIREDITYQQPRLTAWYGELPYTYSRITMEPNPHWHPVLRTLKNRIEENTGHTFNSLLCNLYRNEKDSVDWHSDDEPSLGRCPIIASLSFGATRTFEMRKKPPPEENGDYTYVERVKIPLDHGTLLIMEGATQADWQHRVPKEYHSREPRVNLTFRTVYPDPRGAPW	–	binds
